How the values were obtained:
PDGFR-β = molecular target: T1, PDGFR-β (Homo sapiens, UniProt P09619); test: PDGF-BB-induced PDGFR-β phosphorylation (immunoprecipitation/immunoblot); assay type: cell-based; conditions: 1 μg/ml; PAE-PDGFR-β cells
T1 construct: expressed in transfected cells; host or cells: porcine aortic endothelial (PAE) cells
Procedure: PDGF-BB-mediated phosphorylation was examined similarly in PAESPDGFR-β cells (anti-PDGFR-β; top right panel). […] PDGF-BB-mediated phosphorylation of PDGFR-β in PAE-PDGFR-β cells overexpressing TIMP3 (top right). KDR protein or PDGFR-β protein was analyzed by both immunoprecipitation and immunoblotting with antibodies specific for KDR (left) or for PDGFR-β (right; A and B, second panels from top). […] Total protein levels of ERK were determined by immunoblotting with antibodies specific for ERK1/2 (anti-ERK1/2; A and B, bottom).
Cell fractions, prepared as described earlier, or immunoprecipitates of the lysates with the indicated antibodies, were subjected to SDS-PAGE. Proteins were detected with horseradish peroxidase-conjugated antibodies specific for either rabbit or mouse IgG (Amersham Pharmacia, Piscataway, N.J.) followed by enhanced chemiluminescence.

PAE-FGFR1 cells = test: Endothelial cell proliferation in response to bFGF; assay type: cell-based, porcine; conditions: recombinant TIMP3 (1 and 5 μg/ml) or overexpression
endothelial cells = test: Competitive displacement of [125I]TIMP3 from the surface of endothelial cells; assay type: binding; conditions: unlabeled VEGF 2 μg/ml, TIMP3 10 μg/ml
Procedure: (§1) Immunoprecipitation of cell lysates with antibodies specific for TIMP3 was followed by immunoblotting with antibodies specific for KDR (top). As a control for KDR receptor, cell lysates were immunoprecipitated with anti-bodies specific for KDR and probed with antibodies specific for KDR Immunoprecipitation with antibodies specific for KDR and immunoblotting with antibodies specific for TIMP3 (bottom) were carried out on PAE-KDR cells exposed to recombinant TIMP3 or PAE-KDR-vector and PAE-KDR cells overexpressing TIMP3, to confirm the interaction. […] Competition with unlabeled TIMP3 was carried out to ensure specificity. […] (E) In vivo interaction of KDR and TIMP3 in human placenta. Immunoprecipitation using antibodies specific TIMP3 (top) and KDR (bottom) was followed by immunoblotting with antibodies specific for KDR (top) and TIMP3 (bottom).

KDR-IgG = molecular target: T2, KDR-IgG (Homo sapiens, UniProt P35968); test: Cross-linking of [125I]TIMP3 to soluble KDR; assay type: binding; conditions: bis(sulfosuccinimidyl)suberate
T2 construct: purchased R&D Systems
T2 sequence (P35968 20-764 limits assumed): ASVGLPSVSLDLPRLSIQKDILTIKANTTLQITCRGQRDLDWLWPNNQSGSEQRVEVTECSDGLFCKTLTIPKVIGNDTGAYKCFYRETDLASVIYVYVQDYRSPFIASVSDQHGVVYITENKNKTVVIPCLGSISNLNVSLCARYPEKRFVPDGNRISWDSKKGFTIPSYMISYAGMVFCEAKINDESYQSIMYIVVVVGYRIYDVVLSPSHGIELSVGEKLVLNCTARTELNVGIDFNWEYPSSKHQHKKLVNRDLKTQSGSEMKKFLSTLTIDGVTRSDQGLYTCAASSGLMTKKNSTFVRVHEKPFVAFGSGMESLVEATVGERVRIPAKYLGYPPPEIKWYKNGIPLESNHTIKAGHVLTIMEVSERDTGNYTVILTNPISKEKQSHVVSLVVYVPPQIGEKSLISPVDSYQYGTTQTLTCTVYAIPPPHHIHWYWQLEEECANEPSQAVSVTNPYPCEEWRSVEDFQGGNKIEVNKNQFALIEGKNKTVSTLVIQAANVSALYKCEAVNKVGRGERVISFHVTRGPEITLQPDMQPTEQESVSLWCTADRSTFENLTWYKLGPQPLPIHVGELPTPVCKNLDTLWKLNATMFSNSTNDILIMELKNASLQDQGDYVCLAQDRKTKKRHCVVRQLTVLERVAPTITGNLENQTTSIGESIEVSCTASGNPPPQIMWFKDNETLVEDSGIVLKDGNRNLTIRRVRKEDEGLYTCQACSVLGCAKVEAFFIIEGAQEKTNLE
Procedure: as §1
Ligand-receptor complexes on the cell surface were crosslinked with 0.5 mM disuccinimidyl suberate (Pierce) and analyzed by immunoprecipitation and SDS-PAGE followed by autoradiography. For in vitro assays, radioligand was crosslinked with 250 ng soluble KDR.

PAE-KDR cells = test: Endothelial cell proliferation in response to VEGF165 and VEGF121; assay type: cell-based, porcine
Procedure: (A) Proliferative response of PAE-KDR cells to VEGF165 (5 ng/ml; left) and VEGF121 (30 ng/ml; right). […] (C) DNA synthesis of endothelial cells in response to VEGF165. […] [3H]thymidine incorporation was measured during the last 5 h of incubation. (D) Analysis of endothelial cell expressing TIMP3. […] Expression of TIMP3 protein was determined by immunoblotting with antibody against TIMP3 (top left). MMP-inhibitory activity was determined by reverse zymography (top right). Corresponding densito-metric quantitation is expressed as arbitrary optical density (OD) units±s.d. (C) DNA synthesis in adenovirus-infected cells in response to VEGF. […] In all proliferation experiments, total number of cells was counted at 48 h. Proliferating cell number is expressed as means±s.e.m. of quadruplicate samples. DNA synthesis data represent the means±s.e.m. of triplicate samples; similar results were obtained in at least 2 different experiments. *, P<0.01.
A modified Boyden chamber assay for migration and proliferation assays were carried out as described.

T1 sequence (P09619 33-1106, species assumed): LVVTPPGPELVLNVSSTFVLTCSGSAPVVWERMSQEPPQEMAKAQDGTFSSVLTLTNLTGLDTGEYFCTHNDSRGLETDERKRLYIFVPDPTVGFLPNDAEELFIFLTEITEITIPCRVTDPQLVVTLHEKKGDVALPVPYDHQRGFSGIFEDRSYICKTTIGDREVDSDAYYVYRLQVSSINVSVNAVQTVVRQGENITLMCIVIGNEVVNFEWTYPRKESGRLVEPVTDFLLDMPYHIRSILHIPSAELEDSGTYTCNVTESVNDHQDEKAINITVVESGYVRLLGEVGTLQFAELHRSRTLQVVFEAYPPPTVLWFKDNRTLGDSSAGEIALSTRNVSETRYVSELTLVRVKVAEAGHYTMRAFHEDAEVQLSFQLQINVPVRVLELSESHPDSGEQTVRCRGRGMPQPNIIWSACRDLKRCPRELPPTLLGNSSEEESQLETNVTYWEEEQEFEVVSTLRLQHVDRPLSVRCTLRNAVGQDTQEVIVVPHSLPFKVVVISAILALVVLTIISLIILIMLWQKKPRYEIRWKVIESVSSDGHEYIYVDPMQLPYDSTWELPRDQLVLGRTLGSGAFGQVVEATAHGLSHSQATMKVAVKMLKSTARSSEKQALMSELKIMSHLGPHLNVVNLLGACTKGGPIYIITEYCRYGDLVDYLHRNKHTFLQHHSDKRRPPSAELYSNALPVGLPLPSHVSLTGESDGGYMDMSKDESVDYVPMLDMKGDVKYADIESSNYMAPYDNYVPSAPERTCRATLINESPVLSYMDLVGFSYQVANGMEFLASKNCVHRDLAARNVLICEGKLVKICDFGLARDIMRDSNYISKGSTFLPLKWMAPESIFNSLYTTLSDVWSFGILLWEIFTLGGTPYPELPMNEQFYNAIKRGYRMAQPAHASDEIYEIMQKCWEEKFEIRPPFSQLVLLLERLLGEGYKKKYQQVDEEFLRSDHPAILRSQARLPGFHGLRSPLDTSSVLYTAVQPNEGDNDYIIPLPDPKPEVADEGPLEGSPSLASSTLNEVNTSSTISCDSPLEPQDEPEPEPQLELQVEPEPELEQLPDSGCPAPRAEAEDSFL

B1: TIMP3: tissue inhibitor of metalloproteinases-3; recombinant human form expressed in NSO myeloma cells, or wild-type expressed in transfected cells (protein, listed as Homo sapiens)
chain: MTPWLGLIVLLGSWSLGDWGAEACTCSPSHPQDAFCNSDIVIRAKVVGKKLVKEGPFGTLVYTIKQMKMYRGFTKMPHVQYIHTEASESLCGLKLEVNKYQYLLTGRVYDGKMYTGLCNFVERWDQLTLSQRKGLNYRYHLGCNCKIKSCYYLPCFVTSKNECLWTDMLSNFGYPGYQSKHYACIRQKGGYCSWYRGWAPPDKSIINATDP
PDGFR-β
  effect on phosphorylation of PDGFR-β stimulated with PDGF-BB: did not affect
PAE-FGFR1 cells
  effect on proliferative response to basic fibroblast growth factor (bFGF): Neither recombinant TIMP3 nor TIMP3 overexpression affected the proliferative response
Endothelial cells
  inhibition of binding of labeled TIMP3 to the surface of endothelial cells: could inhibit the binding of labeled TIMP3
KDR-IgG
  direct binding of [125I]TIMP3 to KDR-IgG by cross-linking: could be covalently cross-linked to KDR-IgG
PAE-KDR cells; added exogenously at 0.3-1 μg/ml
  inhibition of proliferative response to VEGF165 and VEGF121: inhibited the proliferative response
PAE-KDR cells; over-expression of TIMP3 in endothelial cells
  proliferative response to VEGF165 and VEGF121: attenuation of the proliferative response
PAE-KDR cells; summary over CAM, proliferation and migration assays
  dose required to block the biological responses of in vivo angiogenesis, endothelial cell proliferation and migration: 0.3-3 μg/ml

Source: patent US8431396B2, “Anti-angiogenic peptides” (The Cleveland Clinic Foundation, priority 2003, dated 2013)
